{"source": "paper doi:10.1101/2023.05.10.540157", "about": "(bioRxiv, 2023)", "key": {"[1]": {"molecular_target": "T1, mineralocorticoid receptor (MR), NanoBiT fusion LgBiT-MR (UniProt P08235 1-984)", "T1 sequence": "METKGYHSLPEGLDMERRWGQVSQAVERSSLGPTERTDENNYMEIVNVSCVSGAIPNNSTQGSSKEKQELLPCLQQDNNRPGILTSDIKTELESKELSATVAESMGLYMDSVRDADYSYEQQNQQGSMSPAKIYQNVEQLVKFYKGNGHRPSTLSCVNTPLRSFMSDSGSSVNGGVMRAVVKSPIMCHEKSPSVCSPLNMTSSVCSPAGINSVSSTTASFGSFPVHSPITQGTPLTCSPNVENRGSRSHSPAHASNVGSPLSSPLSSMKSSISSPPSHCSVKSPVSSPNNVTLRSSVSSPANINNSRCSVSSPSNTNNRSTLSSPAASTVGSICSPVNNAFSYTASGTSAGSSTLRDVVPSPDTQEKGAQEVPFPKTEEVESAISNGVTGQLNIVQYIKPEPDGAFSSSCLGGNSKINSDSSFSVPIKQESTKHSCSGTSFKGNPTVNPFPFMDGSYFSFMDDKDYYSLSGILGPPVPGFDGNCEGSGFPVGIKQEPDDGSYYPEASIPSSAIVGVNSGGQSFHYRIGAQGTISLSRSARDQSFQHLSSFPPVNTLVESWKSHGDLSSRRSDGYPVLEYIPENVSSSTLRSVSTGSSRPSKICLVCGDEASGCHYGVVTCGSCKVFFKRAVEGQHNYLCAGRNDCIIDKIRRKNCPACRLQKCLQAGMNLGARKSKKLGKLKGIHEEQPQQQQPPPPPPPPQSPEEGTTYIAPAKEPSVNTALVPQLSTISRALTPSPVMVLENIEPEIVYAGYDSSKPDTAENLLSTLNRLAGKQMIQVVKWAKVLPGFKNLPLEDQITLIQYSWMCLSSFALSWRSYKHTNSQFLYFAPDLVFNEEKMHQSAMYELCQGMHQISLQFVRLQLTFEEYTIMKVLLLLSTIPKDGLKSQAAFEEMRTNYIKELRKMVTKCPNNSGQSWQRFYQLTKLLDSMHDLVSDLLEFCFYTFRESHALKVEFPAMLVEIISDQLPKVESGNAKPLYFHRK", "test": "split reporter"}, "[2]": {"molecular_target": "T1, mineralocorticoid receptor (MR), …", "test": "split reporter", "remark": "listed apart in the source"}}, "note": "Like-named read-outs stand apart in the source and are kept apart here.", "data": [{"binder": "glucocorticoid receptor (GR), NanoBiT fusion GR-SmBiT (receptor) MDSKESLTPGREENPSSVLAQERGDVMDFYKTLRGGATVKVSASSPSLAVASQSDSKQRRLLVDFPKGSVSNAQQPDLSKAVSLSMGLYMGETETKVMGNDLGFPQQGQISLSSGETDLKLLEESIANLNRSTSVPENPKSSASTAVSAAPTEKEFPKTHSDVSSEQQHLKGQTGTNGGNVKLYTTDQSTFDILQDLEFSSGSPGKETNESPWRSDLLIDENCLLSPLAGEDDSFLLEGNSNEDCKPLILPDTKPKIKDNGDLVLSSPSNVTLPQVKTEKEDFIELCTPGVIKQEKLGTVYCQASFPGANIIGNKMSAISVHGVSTSGGQMYHYDMNTASLSQQQDQKPIFNVIPPIPVGSENWNRCQGSGDDNLTSLGTLNFPGRTVFSNGYSSPSMRPDVSSPPSSSSTATTGPPPKLCLVCSDEASGCHYGVLTCGSCKVFFKRAVEGQHNYLCAGRNDCIIDKIRRKNCPACRYRKCLQAGMNLEARKTKKKIKGIQQATTGVSQETSENPGNKTIVPATLPQLTPTLVSLLEVIEPEVLYAGYDSSVPDSTWRIMTTLNMLGGRQVIAAVKWAKAIPGFRNLHLDDQMTLLQYSWMFLMAFALGWRSYRQSSANLLCFAPDLIINEQRMTLPCMYDQCKHMLYVSSELHRLQVSYEEYLCMKTLLLLSSVPKDGLKSQELFDEIRMTYIKELGKAIVKREGNSSQNWQRFYQLTKLLDSMHEVVENLLNYCFQTFLDKTMSIEFPEMLAEIITNQIPKYSNGNIKKLLFHQK", "values": [{"measurement": "fold induction of NanoBiT luminescence versus solvent", "setting": "[1]", "value": "~8", "unit": "fold"}, {"measurement": "fold induction of NanoBiT luminescence versus solvent", "setting": "[2]", "value": "~6", "unit": "fold"}]}]}
